According to US20110123447A1 (UNIVERSITY OF ZURICH, published 2011):
“And” between values parts separate entries of the source, which are not always exact repeats. Equal values may be shown once.

What was measured:
[1] = target: T1, NY-ESO-1 11-30 peptide (human); experiment: competition ELISA: soluble NY-ESO-1 11-30 peptide against plate bound peptide
T1 construct: also called peptide spanning amino acids 11 to 30 of NY-ESO-1
T1 peptide: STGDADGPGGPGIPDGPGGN
Experimental: The avidity of Manhattan was determined by competition ELISA using increasing concentrations of soluble NY-ESO-1₁₁₋₃₀ peptide to compete for the plate bound peptide. As depicted in FIG. 3C, the antigen-binding equilibrium dissociation constant (KD) of the interaction of Manhattan with its cognate peptide was in the lower nanomolar range.

[2] = target: T2, full length recombinant NY-ESO-1 protein (human, UniProt P78358 1-180); experiment: ELISA on coated recombinant NY-ESO-1, supernatant of transfected 293 HEK cells
T2 construct: mature; The form was set to 'mature' to stand for full length

[3] = target: T3, NY-ESO-1 as expressed in NY-ESO-1-positive mamma carcinoma tissue sections and in the cell line SK-MEL-37 (human, UniProt P78358 1-180); experiment: immunohistochemistry on NY-ESO-1-positive tissue sections
T3 construct: whole, on cells; The antigen is intracellular; It was detected in fixed sections or permeabilised cells, not on the cell surface; also called NY-ESO-1-positive tissue; NY-ESO-1-positive cell line SK-MEL-37
Experimental: Immunohistochemistry was performed on formalin-fixed, paraffin-embedded tissue. Heat-based antigen retrieval was applied to all slides. Non-specific fluorescence was blocked using polyclonal rabbit anti-human IgG (Dako, Baar, Switzerland) for 30 min at room temperature followed by a second block in 1% of low fat milk (Rapilait, Migros, Switzerland) for 10 min. Primary antibody or B cell conditioned medium was incubated overnight at 4° C. […] As positive control for the presence of NY-ESO-1 antigen a mouse anti-NY-ESO-1 monoclonal antibody (Zymed, South San Francisco, USA) was used.

[4] = target: T1, NY-ESO-1 11-30 peptide; experiment: saturation ELISA on coated NY-ESO-1 11-30 peptide
[5] = target: T4, NY-ESO-1 peptide spanning amino acids 21-40 (human, UniProt P78358 21-40); experiment: epitope mapping ELISA on coated overlapping peptides
T4 construct: range 21-40; also called adjacent peptide 21-40
T4 peptide (looked up): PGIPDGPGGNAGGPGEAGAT
Experimental: (§1) 20mer peptides spanning the entire NY-ESO-1 protein with 10 aa overlaps shared by each adjacent peptides (Peptides&Elephants, Nuthetal, Germany) were used to coat Maxisorp ELISA plates (Nunc, Rochester, N.Y.). Human recombinant antibody Manhattan or patient serum (diluted 1:500 in PBS) was detected using horseradish peroxidase-conjugated Goat anti-human IgG+IgM (Jackson ImmunoResearch).
(§2) To identify the epitope recognized by Manhattan on NY-ESO-1 ELISA was performed using overlapping peptides spanning the complete NY-ESO-1 protein. […] This epitope, among others was also recognized by antibodies contained in serum of patient C1 (FIG. 3B).

[6] = target: T5, NY-ESO-1 peptide spanning amino acids 1-20 (human, UniProt P78358 1-20); experiment: as above
T5 construct: range 1-20; also called adjacent peptide 1-20
T5 peptide (looked up): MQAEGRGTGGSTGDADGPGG
Experimental: as §1, §2

B1: human monoclonal antibody Manhattan (recombinant human antibody 12D7 clone No. 4) (antibody, human IgG1, V domains shown)
VH: QVQLVQSGGGVVRPGGSLRLSCAASGFSFIDYGMSWVRQVPGKGLEWVAGMNWSGDKKGHAESVKGRFIISRDNAKNTLYLEMSSLRVEDTALYFCARGEYSNRFDPRGRGTLVTVSS
VL: DIVMTQTPLSLPVTLGQPASLSCRSSQSLVFTDGNTYLNWFQQRPGQSPRRLIYKVSSRDPGVPDRFSGTGSGTDFTLEISRVEAEDIGVYYCMQGTHWPPIFGQGTKVEIK
notes: They were cloned into vectors with the constant regions of human IgG1 heavy chain and human kappa light chain and expressed in 293 HEK cells; also called 12D7 clone number 4; 12D7.4
B1 was tested, and the Kd [1] was 0.1 nM, the binding result [2] was “binds” and the binding result [3] was “binds”. The EC50 [4] was 1 nM and 0.15 µg/mL, the binding result [5] was “no binding” and the binding result [6] was “no binding”.
